# Measured values: IntAct's records for PubMed 17070805
# B1: RING1 and YY1-binding protein (Homo sapiens), Q8N488 (parent)
# chain: MTMGDKKSPTRPKRQAKPAADEGFWDCSVCTFRNSAEAFKCSICDVRKGTSTRKPRINSQLVAQQVAQQYATPPPPKKEKKEKVEKQDKEKPEKDKEISPSVTKKNTNKKTKPKSDILKDPPSEANSIQSANATTKTSETNHTSRPRLKNVDRSTAQQLAVTVGNVTVIITDFKEKTRSSSTSSSTVTSSAGSEQQNQSSSGSESTDKGSSRSSTPKGDMSAVNDESF
# Variants of: B1
# Conditions: with ubc_human UBC
row,effect of a mutation on the interaction,Variant
1,disrupting interaction,T31A;F32A

# Variants of: B1
# Conditions: with ubc_human UBC
# Remark: another data set of the same source
row,effect of a mutation on the interaction,Variant
1,disrupting interaction,T31A;F32A

# Variants of: B1
# Conditions: with RING1, Q06587-2
# Sequence of RING1, Q06587-2 (Q06587 30-406): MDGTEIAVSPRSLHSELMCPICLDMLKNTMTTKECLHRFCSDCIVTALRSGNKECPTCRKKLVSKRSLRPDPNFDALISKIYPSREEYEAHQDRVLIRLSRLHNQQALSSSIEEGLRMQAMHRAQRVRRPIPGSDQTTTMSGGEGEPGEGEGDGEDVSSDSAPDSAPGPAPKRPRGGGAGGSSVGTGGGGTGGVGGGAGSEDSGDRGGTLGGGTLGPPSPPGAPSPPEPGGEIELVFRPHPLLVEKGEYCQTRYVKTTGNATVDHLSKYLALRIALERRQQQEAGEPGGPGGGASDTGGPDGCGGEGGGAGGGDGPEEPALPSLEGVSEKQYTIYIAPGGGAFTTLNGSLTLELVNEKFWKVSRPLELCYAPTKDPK
row,effect of a mutation on the interaction,Variant
1,disrupting interaction,T31A;F32A
